# Assay results: patent publication US20140357577A1, “HIV Membrane Fusion Inhibitors” (priority 2011, published 2014)
# Starred links: 1 amine or outer side, 2 acyl side, 3 side chain; linkers in the order of their positions; H or OH if unused. Positions of bridges follow the written chain, without caps; N, C: chain ends. Non-standard residues stand in square brackets, D forms with d. *: point of attachment. pXylylene = c1cc(C[*:2])ccc1C[*:1]; Palmitoyl = CCCCCCCCCCCCCCCC(=O)*; tBuAla = CC(C)(C)C[C@H](N)C(=O)O; Cha = N[C@@H](CC1CCCCC1)C(=O)O; Suc = O=C(CCC(=O)[*:2])[*:1]; Abu = CC[C@H](N)C(=O)O; Pentanoyl = CCCCC(=O)*; B1 = not defined here
# B1: peptide 54 (peptide)
# peptide: Ac-ACYLACIEALIRAAQEQQEKNEAALL-NH2
# modifications: linker 2-6 via pXylylene
# SMILES: CC[C@H](C)[C@H](NC(=O)[C@H](CC(C)C)NC(=O)[C@H](C)NC(=O)[C@H](CCC(=O)O)NC(=O)[C@@H](NC(=O)[C@@H]1CSCc2ccc(cc2)CSC[C@H](NC(=O)[C@H](C)NC(C)=O)C(=O)N[C@@H](Cc2ccc(O)cc2)C(=O)N[C@@H](CC(C)C)C(=O)N[C@@H](C)C(=O)N1)[C@@H](C)CC)C(=O)N[C@@H](CCCNC(=N)N)C(=O)N[C@@H](C)C(=O)N[C@@H](C)C(=O)N[C@@H](CCC(N)=O)C(=O)N[C@@H](CCC(=O)O)C(=O)N[C@@H](CCC(N)=O)C(=O)N[C@@H](CCC(N)=O)C(=O)N[C@@H](CCC(=O)O)C(=O)N[C@@H](CCCCN)C(=O)N[C@@H](CC(N)=O)C(=O)N[C@@H](CCC(=O)O)C(=O)N[C@@H](C)C(=O)N[C@@H](C)C(=O)N[C@@H](CC(C)C)C(=O)N[C@@H](CC(C)C)C(N)=O
# B2: peptide 49 (peptide)
# peptide: Suc-ACY[Abu]ACIEALIRAAQEQQEKNEAALR-NH2
# modifications: linker 2-6 via B1; reading uncertain
# B3: peptide 52 (peptide)
# peptide: Pentanoyl-ENYLALIEELIRKAQEQQEKNEAALR-NH2
# SMILES: CCCCC(=O)N[C@@H](CCC(=O)O)C(=O)N[C@@H](CC(N)=O)C(=O)N[C@@H](Cc1ccc(O)cc1)C(=O)N[C@@H](CC(C)C)C(=O)N[C@@H](C)C(=O)N[C@@H](CC(C)C)C(=O)N[C@H](C(=O)N[C@@H](CCC(=O)O)C(=O)N[C@@H](CCC(=O)O)C(=O)N[C@@H](CC(C)C)C(=O)N[C@H](C(=O)N[C@@H](CCCNC(=N)N)C(=O)N[C@@H](CCCCN)C(=O)N[C@@H](C)C(=O)N[C@@H](CCC(N)=O)C(=O)N[C@@H](CCC(=O)O)C(=O)N[C@@H](CCC(N)=O)C(=O)N[C@@H](CCC(N)=O)C(=O)N[C@@H](CCC(=O)O)C(=O)N[C@@H](CCCCN)C(=O)N[C@@H](CC(N)=O)C(=O)N[C@@H](CCC(=O)O)C(=O)N[C@@H](C)C(=O)N[C@@H](C)C(=O)N[C@@H](CC(C)C)C(=O)N[C@@H](CCCNC(=N)N)C(N)=O)[C@@H](C)CC)[C@@H](C)CC
# B4: peptide 56 (peptide)
# peptide: Ac-ACYLACIEALIRAAQEQQEKNEAALR-NH2
# modifications: linker 2-6 via pXylylene
# SMILES: CC[C@H](C)[C@H](NC(=O)[C@H](CC(C)C)NC(=O)[C@H](C)NC(=O)[C@H](CCC(=O)O)NC(=O)[C@@H](NC(=O)[C@@H]1CSCc2ccc(cc2)CSC[C@H](NC(=O)[C@H](C)NC(C)=O)C(=O)N[C@@H](Cc2ccc(O)cc2)C(=O)N[C@@H](CC(C)C)C(=O)N[C@@H](C)C(=O)N1)[C@@H](C)CC)C(=O)N[C@@H](CCCNC(=N)N)C(=O)N[C@@H](C)C(=O)N[C@@H](C)C(=O)N[C@@H](CCC(N)=O)C(=O)N[C@@H](CCC(=O)O)C(=O)N[C@@H](CCC(N)=O)C(=O)N[C@@H](CCC(N)=O)C(=O)N[C@@H](CCC(=O)O)C(=O)N[C@@H](CCCCN)C(=O)N[C@@H](CC(N)=O)C(=O)N[C@@H](CCC(=O)O)C(=O)N[C@@H](C)C(=O)N[C@@H](C)C(=O)N[C@@H](CC(C)C)C(=O)N[C@@H](CCCNC(=N)N)C(N)=O
# B5: peptide 59 (peptide)
# peptide: Ac-ACY[Cha]ACIEALIRAAQEQQEKNEAALR-NH2
# modifications: linker 2-6 via B1; reading uncertain
# B6: peptide 51 (peptide)
# peptide: Ac-ACYLACIEALIRRAQEQQEKNEAALR-NH2
# modifications: linker 2-6 via pXylylene
# SMILES: CC[C@H](C)[C@H](NC(=O)[C@@H]1CSCc2ccc(cc2)CSC[C@H](NC(=O)[C@H](C)NC(C)=O)C(=O)N[C@@H](Cc2ccc(O)cc2)C(=O)N[C@@H](CC(C)C)C(=O)N[C@@H](C)C(=O)N1)C(=O)N[C@@H](CCC(=O)O)C(=O)N[C@@H](C)C(=O)N[C@@H](CC(C)C)C(=O)N[C@H](C(=O)N[C@@H](CCCNC(=N)N)C(=O)N[C@@H](CCCNC(=N)N)C(=O)N[C@@H](C)C(=O)N[C@@H](CCC(N)=O)C(=O)N[C@@H](CCC(=O)O)C(=O)N[C@@H](CCC(N)=O)C(=O)N[C@@H](CCC(N)=O)C(=O)N[C@@H](CCC(=O)O)C(=O)N[C@@H](CCCCN)C(=O)N[C@@H](CC(N)=O)C(=O)N[C@@H](CCC(=O)O)C(=O)N[C@@H](C)C(=O)N[C@@H](C)C(=O)N[C@@H](CC(C)C)C(=O)N[C@@H](CCCNC(=N)N)C(N)=O)[C@@H](C)CC
# B7: peptide 60 (peptide)
# peptide: Ac-ACY[tBuAla]ACIEALIRAAQEQQEKNEAALR-NH2
# modifications: linker 2-6 via B1; reading uncertain
# B8: peptide 1 (peptide)
# peptide: Suc-ANYLALIEALIRAAQEQQEKNEAAL-NH2
# SMILES: CC[C@H](C)[C@H](NC(=O)[C@H](CC(C)C)NC(=O)[C@H](C)NC(=O)[C@H](CCC(=O)O)NC(=O)[C@@H](NC(=O)[C@H](CC(C)C)NC(=O)[C@H](C)NC(=O)[C@H](CC(C)C)NC(=O)[C@H](Cc1ccc(O)cc1)NC(=O)[C@H](CC(N)=O)NC(=O)[C@H](C)NC(=O)CCC(=O)O)[C@@H](C)CC)C(=O)N[C@@H](CCCNC(=N)N)C(=O)N[C@@H](C)C(=O)N[C@@H](C)C(=O)N[C@@H](CCC(N)=O)C(=O)N[C@@H](CCC(=O)O)C(=O)N[C@@H](CCC(N)=O)C(=O)N[C@@H](CCC(N)=O)C(=O)N[C@@H](CCC(=O)O)C(=O)N[C@@H](CCCCN)C(=O)N[C@@H](CC(N)=O)C(=O)N[C@@H](CCC(=O)O)C(=O)N[C@@H](C)C(=O)N[C@@H](C)C(=O)N[C@@H](CC(C)C)C(N)=O
# B9: peptide 57 (peptide)
# peptide: Ac-ACYIACIEALIRAAQEQQEKNEAALR-NH2
# modifications: linker 2-6 via pXylylene
# SMILES: CC[C@H](C)[C@@H]1NC(=O)[C@H](Cc2ccc(O)cc2)NC(=O)[C@@H](NC(=O)[C@H](C)NC(C)=O)CSCc2ccc(cc2)CSC[C@@H](C(=O)N[C@H](C(=O)N[C@@H](CCC(=O)O)C(=O)N[C@@H](C)C(=O)N[C@@H](CC(C)C)C(=O)N[C@H](C(=O)N[C@@H](CCCNC(=N)N)C(=O)N[C@@H](C)C(=O)N[C@@H](C)C(=O)N[C@@H](CCC(N)=O)C(=O)N[C@@H](CCC(=O)O)C(=O)N[C@@H](CCC(N)=O)C(=O)N[C@@H](CCC(N)=O)C(=O)N[C@@H](CCC(=O)O)C(=O)N[C@@H](CCCCN)C(=O)N[C@@H](CC(N)=O)C(=O)N[C@@H](CCC(=O)O)C(=O)N[C@@H](C)C(=O)N[C@@H](C)C(=O)N[C@@H](CC(C)C)C(=O)N[C@@H](CCCNC(=N)N)C(N)=O)[C@@H](C)CC)[C@@H](C)CC)NC(=O)[C@H](C)NC1=O
# B10: peptide 2 (peptide)
# peptide: Ac-ANYAALIEALIRAAQEQQEKNEAALR-NH2
# B11: peptide 55 (peptide)
# peptide: Suc-ENYLRLIEELIRKAQEQQEKNEAALRGSGK(Palmitoyl)-NH2
# SMILES: CCCCCCCCCCCCCCCC(=O)NCCCC[C@H](NC(=O)CNC(=O)[C@H](CO)NC(=O)CNC(=O)[C@H](CCCNC(=N)N)NC(=O)[C@H](CC(C)C)NC(=O)[C@H](C)NC(=O)[C@H](C)NC(=O)[C@H](CCC(=O)O)NC(=O)[C@H](CC(N)=O)NC(=O)[C@H](CCCCN)NC(=O)[C@H](CCC(=O)O)NC(=O)[C@H](CCC(N)=O)NC(=O)[C@H](CCC(N)=O)NC(=O)[C@H](CCC(=O)O)NC(=O)[C@H](CCC(N)=O)NC(=O)[C@H](C)NC(=O)[C@H](CCCCN)NC(=O)[C@H](CCCNC(=N)N)NC(=O)[C@@H](NC(=O)[C@H](CC(C)C)NC(=O)[C@H](CCC(=O)O)NC(=O)[C@H](CCC(=O)O)NC(=O)[C@@H](NC(=O)[C@H](CC(C)C)NC(=O)[C@H](CCCNC(=N)N)NC(=O)[C@H](CC(C)C)NC(=O)[C@H](Cc1ccc(O)cc1)NC(=O)[C@H](CC(N)=O)NC(=O)[C@H](CCC(=O)O)NC(=O)CCC(=O)O)[C@@H](C)CC)[C@@H](C)CC)C(N)=O
# B12: peptide 50 (peptide)
# peptide: Ac-ECYLRCIEALIRAAQEQQEKNEAALR-NH2
# modifications: linker 2-6 via pXylylene
# SMILES: CC[C@H](C)[C@H](NC(=O)[C@H](CC(C)C)NC(=O)[C@H](C)NC(=O)[C@H](CCC(=O)O)NC(=O)[C@@H](NC(=O)[C@@H]1CSCc2ccc(cc2)CSC[C@H](NC(=O)[C@H](CCC(=O)O)NC(C)=O)C(=O)N[C@@H](Cc2ccc(O)cc2)C(=O)N[C@@H](CC(C)C)C(=O)N[C@@H](CCCNC(=N)N)C(=O)N1)[C@@H](C)CC)C(=O)N[C@@H](CCCNC(=N)N)C(=O)N[C@@H](C)C(=O)N[C@@H](C)C(=O)N[C@@H](CCC(N)=O)C(=O)N[C@@H](CCC(=O)O)C(=O)N[C@@H](CCC(N)=O)C(=O)N[C@@H](CCC(N)=O)C(=O)N[C@@H](CCC(=O)O)C(=O)N[C@@H](CCCCN)C(=O)N[C@@H](CC(N)=O)C(=O)N[C@@H](CCC(=O)O)C(=O)N[C@@H](C)C(=O)N[C@@H](C)C(=O)N[C@@H](CC(C)C)C(=O)N[C@@H](CCCNC(=N)N)C(N)=O
# B13: peptide 53 (peptide)
# peptide: Ac-ECYAACIEELIRKAQEQQEKNEAALR-NH2
# modifications: linker 2-6 via pXylylene
# SMILES: CC[C@H](C)[C@H](NC(=O)[C@@H]1CSCc2ccc(cc2)CSC[C@H](NC(=O)[C@H](CCC(=O)O)NC(C)=O)C(=O)N[C@@H](Cc2ccc(O)cc2)C(=O)N[C@@H](C)C(=O)N[C@@H](C)C(=O)N1)C(=O)N[C@@H](CCC(=O)O)C(=O)N[C@@H](CCC(=O)O)C(=O)N[C@@H](CC(C)C)C(=O)N[C@H](C(=O)N[C@@H](CCCNC(=N)N)C(=O)N[C@@H](CCCCN)C(=O)N[C@@H](C)C(=O)N[C@@H](CCC(N)=O)C(=O)N[C@@H](CCC(=O)O)C(=O)N[C@@H](CCC(N)=O)C(=O)N[C@@H](CCC(N)=O)C(=O)N[C@@H](CCC(=O)O)C(=O)N[C@@H](CCCCN)C(=O)N[C@@H](CC(N)=O)C(=O)N[C@@H](CCC(=O)O)C(=O)N[C@@H](C)C(=O)N[C@@H](C)C(=O)N[C@@H](CC(C)C)C(=O)N[C@@H](CCCNC(=N)N)C(N)=O)[C@@H](C)CC
# Target: gp41 of HIV-1 strain HXB2D with mutation V38A (HIV-1 strain HXB2D, UniProt P04578)
# Assay: cell-based or functional assay
row,Binder,"fold change in EC50, HIV-HXB2D V38A mutant [fold]"
1,B1,31
2,B2,33
3,B3,5
4,B4,61
5,B5,18
6,B6,10
7,B7,18
8,B8,57
9,B9,23
10,B10,61
11,B11,1
12,B12,12
13,B13,34
